According to US9340596B2, “Fusion protein comprising tumor necrosis factor related apoptosis inducing ligand and integrin ligand and use thereof” (NANJING UNIVERSITY, priority 2007, dated 2016):

Key:
[1] = system: human foreskin microvascular endothelial cells; assay: Cell adhesion assay of human foreskin microvascular endothelial cells on protein-coated wells; type: cell-based; conditions: free protein added to plates coated with TRAIL variant protein
Method: The TRAIL and its variant protein are coated on a 96-well PVC plate overnight at 4° C. The coated 96-well plate was rinsed with 0.9% physiological saline, and then blocked for 1 h at 1640 culture medium containing 2% bovine serum albumin, and then rinsed again. After the human foreskin microvascular endothelial cells were digested, washed three times with phosphate buffer and re-suspended into the complete RPMI1640 medium, it was then added to the 96-well plate coated with TRAIL and its variant (40,000 cell per well). After the cells were incubated for 1.5 hours in an incubator containing 5% carbon dioxide, they were washed three times with physiological saline to remove the non-adherent cells. The adherent cells were fixed for 30 min with phosphate buffer solution (pH 7.3) containing 4% formalin and 2% sucrose, and then stained with 0.5% crystal violet. The fixed stained cells were rinsed several times, then dissolved with […] DMSO to test the absorbance values at 540 nm. All the tests should be carried out at least three times independently.

[2] = system: COLO-205 colon cancer cells; assay: Cell apoptosis, Annexin V and PI double staining, COLO-205; type: cell-based; conditions: COLO-205 cells pre-incubated with RGD-L-TRAIL (C230G), then induced with RGD-L-TRAIL
Method: After the cells treated with TRAIL and its variant were digested with trypsin, they were removed from the cultivation plate, washed twice with phosphate buffer solution, and centrifuged for 5 min at 300 g centrifugal force. The supernatants were removed, and the cells were re-suspended in 100 ul of binding buffer solution. Then, Annexin V-FITC (BD Pharmgen) was added until a final concentration of 2 μg/ml was achieved, followed by incubation at room temperature. After 10 min, 400 ul of binding buffer was added, and the cells were transferred to a flow analysis tube. 1 μg of […] (Sigma Corporation) was added to each tube. The cells were analyzed with a flow cytometer within 30 min. At least three separate tests should be carried out for each cell line.

B1: RGD-L-TRAIL (C230G): TRAIL variant fused with αVβ3 and αVβ5 integrin ligands with a mutation at TRAIL's activity center causing loss of biological activity (protein)
chain: ACDCRGDCFCGGGGGVRERGPQRVAAHITGTRGRSNTLSSPNSKNEKALGRKINSWESSRSGHSFLSNLHLRNGELVIHEKGFYYIYSQTYFRFQEEIKENTKNDKQMVQYIYKYTSYPDPILLMKSARNSGWSKDAEYGLYSIYQGGIFELKENDRIFVSVTNEHLIDMDHEASFFGAFLVG
reduction by free protein of endothelial cells adhered to microplates coated with RGD-L-TRAIL (competitive test) [1]: significantly reduce | effect of pre-incubation with the competitive inhibitor on RGD-L-TRAIL-induced apoptosis activity [2]: declined significantly
